The results in this text go back to patent publication US20240254182A1 (PROVINCIAL HEALTH SERVICES AUTHORITY, published 2024).

First the molecules themselves.
T1: WT G-CSF, purified from insect cells, tag cleaved (human, UniProt P09919 31-206)
T1 construct: protein of the SPR; also called G-CSFWT; wild type G-CSF
T1 sequence: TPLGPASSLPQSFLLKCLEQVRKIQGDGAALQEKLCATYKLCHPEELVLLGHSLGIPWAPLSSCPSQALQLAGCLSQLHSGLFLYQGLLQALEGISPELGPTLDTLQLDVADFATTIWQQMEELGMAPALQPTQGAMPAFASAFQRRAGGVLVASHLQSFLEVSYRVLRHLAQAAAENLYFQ

T2: WT G-CSFR(Ig-CRH), purified, tag cleaved (human, UniProt Q99062 26-331)
T2 construct: also called G-CSFRWT; wild type G-CSFR(Ig-CRH)
T2 chain: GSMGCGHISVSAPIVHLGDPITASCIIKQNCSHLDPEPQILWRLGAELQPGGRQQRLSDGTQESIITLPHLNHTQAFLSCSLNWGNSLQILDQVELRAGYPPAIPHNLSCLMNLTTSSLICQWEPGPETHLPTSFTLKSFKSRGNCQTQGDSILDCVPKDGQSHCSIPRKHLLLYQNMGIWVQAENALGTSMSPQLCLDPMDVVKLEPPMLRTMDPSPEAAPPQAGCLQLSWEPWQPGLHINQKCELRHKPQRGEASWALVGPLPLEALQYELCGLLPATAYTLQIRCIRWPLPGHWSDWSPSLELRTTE

B1: design 130 G-CSFR(Ig-CRH)E, tag cleaved (receptor)
chain: SMGCGHISVSAPIVHLGDPITASCIIKQNCSHLDPEPQILWELGAELQPGGRQQRLSDGTQESIITLPHLNHTQAFLSCSLNWGNSLQILDQVELRAGYPPAIPHNLSCLMNLTTSSLICQWEPGPETHLPTSFTLKSFKSRGNCQTQGDSILDCVPKDGQSHCSIPDKHLLLYQNMGIWVQAENALGTSMSPQLCLDPMDVVKLEPPMLRTMDPSPEAAPPQAGCLQLSWEPWQPGLHINQKCELRHKPQRGEASWALVGPLPLEALQYELCGLLPATAYTLQIRCIRWPLPGHWSDWSPSLELRTTE
notes: also called 130 ECD (Ig-CRH)
B2: design 402 G-CSFR(Ig-CRH)E, tag cleaved (receptor)
chain: SMGCGHISVSAPIVHLGDPITASCIIKQNCSHLDPEPQILWELGAELQPGGRQQRLSDGTQESIITLPHLNHTQAFLSCSLNWGNSLQILDQVELRAGYPPAIPHNLSCLMNLTTSSLICQWEPGPETHLPTSFTLKSFKSRGNCQTQGDSILDCVPKDGQSHCSIPEKHLLLYENMGIWVQAENALGTSMSPQLCLDPMDVVKLEPPMLRTMDPSPEAAPPQAGCLQLSWEPWQPGLHINQKCELRHKPQRGEASWALVGPLPLEALQYELCGLLPATAYTLQIRCIEWPLPGHWSDWSPSLELRTTE
B3: design 401 G-CSFR(Ig-CRH)E, tag cleaved (receptor)
chain: SMGCGHISVSAPIVHLGDPITASCIIKQNCSHLDPEPQILWELGAELQPGGRQQRLSDGTQESIITLPHLNHTQAFLSCSLNWGNSLQILDQVELRAGYPPAIPHNLSCLMNLTTSSLICQWEPGPETHLPTSFTLKSFKSRGNCQTQGDSILDCVPKDGQSHCSIPDKHLLLYQNMGIWVQAENALGTSMSPQLCLDPMDVVKLEPPMLRTMDPSPEAAPPQAGCLQLSWEPWQPGLHINQKCELRHKPQRGEASWALVGPLPLEALQYELCGLLPATAYTLQIRCIDWPLPGHWSDWSPSLELRTTE
B4: design 303 G-CSFR(Ig-CRH)E, tag cleaved (receptor)
chain: SMGCGHISVSAPIVHLGDPITASCIIKQNCSHLDPEPQILWRLGAELQPGGRQQRLSDGTQESIITLPHLNHTQAFLSCSLNWGNSLQILDQVKLRAGYPPAIPHNLSCLMNLTTSSLICQWEPGPETHLPTSFTLKSFKSRGNCQTQGDSILDCVPKDGQSHCSIPDKHLLLYQNMGIWVQAENALGTSMSPQLCLDPMDVVKLEPPMLRTMDPSPEAAPPQAGCLQLSWEPWQPGLHINQKCELRHKPQRGEASWALVGPLPLEALQYELCGLLPATAYTLQIRCIRWPLPGHWSDWSPSLELRTTE
B5: design 300 G-CSFR(Ig-CRH)E, tag cleaved (receptor)
chain: SMGCGHISVSAPIVHLGDPITASCIIKQNCSHLDPEPQILWRLGAELQPGGRQQRLSDGTQESIITLPHLNHTQAKLSCSLNWGNSLQILDKVELRAGYPPAIPHNLSCLMNLTTSSLICQWEPGPETHLPTSFTLKSFKSRGNCQTQGDSILDCVPKDGQSHCSIPDKHLLLYQNMGIWVQAENALGTSMSPQLCLDPMDVVKLEPPMLRTMDPSPEAAPPQAGCLQLSWEPWQPGLHINQKCELRHKPQRGEASWALVGPLPLEALQYELCGLLPATAYTLQIRCIRWPLPGHWSDWSPSLELRTTE
B6: design 134 G-CSFR(Ig-CRH)E, tag cleaved (receptor)
chain: SMGCGHISVSAPIVHLGDPITASCIIKQNCSHLDPEPQILWELGAELQPGGRQQRLSDGTQESIITLPHLNHTQAFLSCSLNWGNSLQILDQVELRAGYPPAIPHNLSCLMNLTTSSLICQWEPGPETHLPTSFTLKSFKSEGNCQTQGDSILDCVPKDGQSHCSIPDKHLLLYQNMGIWVQAENALGTSMSPQLCLDPMDVVKLEPPMLRTMDPSPEAAPPQAGCLQLSWEPWQPGLHINQKCELRHKPQRGEASWALVGPLPLEALQYELCGLLPATAYTLQIRCIRWPLPGHWSDWSPSLELRTTE
notes: also called design 137 G-CSFR(Ig-CRH)E
B7: design 304 G-CSFR(Ig-CRH)E, tag cleaved (receptor)
chain: SMGCGHISVSAPIVHLGDPITASCIIKQNCSHLDPEPQILWELGAELQPGGRQQRLSDGTQESIITLPHLNHTQAFLSCSLNWGNSLQILDQVKLRAGYPPAIPHNLSCLMNLTTSSLICQWEPGPETHLPTSFTLKSFKSRGNCQTQGDSILDCVPKDGQSHCSIPDKHLLLYQNMGIWVQAENALGTSMSPQLCLDPMDVVKLEPPMLRTMDPSPEAAPPQAGCLQLSWEPWQPGLHINQKCELRHKPQRGEASWALVGPLPLEALQYELCGLLPATAYTLQIRCIRWPLPGHWSDWSPSLELRTTE
B8: design 307 G-CSFR(Ig-CRH)E, tag cleaved (receptor)
chain: SMGCGHISVSAPIVHLGDPITASCIIKQNCSHLDPEPQILWELGAELQPGGRQQRLSDGTQESIITLPHLNHTQAFLSCSLNWGNSLQILDQVELRAGYPPAIPHNLSCLMNLTTSSLICQWEPGPETHLPTSFTLKSFKSRGNCQTQGDSILDCVPKDGQSHCSIPRKHLLLYQNMGIWVQAENALGTSMSPQLCLKPMKVVKLEPPMLRTMDPSPEAAPPQAGCLQLSWEPWQPGLHINQKCELRHKPQRGEASWALVGPLPLEALQYELCGLLPATAYTLQIRCIEWPLPGHWSDWSPSLELRTTE
B9: design 134 G-CSFE, tag cleaved (ligand)
chain: TPLGPASSLPQSFLLKCLEQVRKIQGDGAALQEKLCATYKLCHPERLVLLGHSLGIPWAPLSSCPSQALQLAGCLSQLHSGLFLYQGLLQALEGISPELGPTLDTLQKDVARFATTIWQQMRRLGMAPALQPTQGAMPAFASAFQRRAGGVLVASHLQSFLEVSYRVLRHLAQAAAENLYFQ
B10: design 9 G-CSFE, tag cleaved (ligand)
chain: TPLGPASSLPQSFLLKCLEQVRKIQGDGAALQEKLCATYKLCHPEELVLLGHSLGIPWAPLSSCPSQALQLAGCLSQLHSGLFLYQGLLQALEGISPELGPTLRTLQKDVARFATTIWRQMKELGMAPALQPTQGAMPAFASAFQRRAGGVLVASHLQSFLEVSYRVLRHLAQAAAENLYFQ
notes: also called design 9 G-CSFE mutant
B11: design 117 G-CSFE, tag cleaved (ligand)
chain: TPLGPASSLPQSFLLKCLEQVRKIQGDGAALQEKLCATYKLCHPERLVLLGHSLGIPWAPLSSCPSQALQLAGCLSQLHSGLFLYQGLLQALEGISPELGPTLDTLQLDVADFATTIWQQMRRLGMAPALQPTQGAMPAFASAFQRRAGGVLVASHLQSFLEVSYRVLRHLAQAAAENLYFQ
notes: also called design 117 G-CSFE mutant

The first test addresses T1, WT G-CSF, purified from insect cells, …. Put plainly: SPR, single-cycle kinetics. In general terms: Surface plasmon resonance follows binding to a sensor surface in real time, without labels.
In the case of B1, the binding result is given as “no binding”. On the same count and under the same terms, the entry for B2 is “no binding”; for B3 it is “no binding”.

The target is the same in a further test. Kind of test: SPR (Biacore T200), single-cycle kinetics.
Consider B4, for which the binding result is given as “no binding”. For B5, the binding result was “no binding”.

For the molecule B6, the binding result is “no binding”. Still for that read-out and setting: to B7 belongs “no binding”. Regarding B8, the binding result is “no binding”.

Another test has as its target B6. Put plainly: SPR, G-CSFRE amine-coupled, G-CSFE injected, single-cycle kinetics. The procedure: (§1) The SPR binding assays were carried out on a Biacore T200 instrument (GE Healthcare, Mississauga, ON, Canada) with PBS-T (PBS+0.05% (v/v) Tween 20) running buffer at a temperature of 25° C. CM5 Series S sensor chip, Biacore amine coupling kit (NHS, EDC and 1 M ethanolamine), and 10 mM sodium acetate buffers were all purchased from GE Healthcare. PBS running buffer with 0.05% Tween20 (PBS-T) was purchased from Teknova Inc. (Hollister, CA). Designs were assessed in three different immobilization orientations.
To determine binding affinity of G-CSFE to G-CSFRE the G-CSFRE mutant was captured by standard amine coupling as described by the manufacturer (GE LifeSciences). Briefly, immediately after EDC/NHS activation, a 5 μg/mL solution of G-CSFRE in 10 mM NaOAc, pH 5.0, was injected at a flow rate of 5 μL/min until a receptor density of ˜700-900 RU was reached. The remaining active groups were quenched by a 420 s injection of 1 M ethanolamine hydrochloride-NaOH pH 8.5 at 10 μL/min. Using single-cycle kinetics, six concentrations of a two-fold dilution series of the corresponding G-CSFE mutant starting at 200 nM with a blank buffer control were sequentially injected at 25 μL/min for 300 s with a 1800 s dissociation phase, resulting in a set of sensorgrams with a buffer blank reference. The same sample titration was also performed on a reference cell with no variants captured. The chip was regenerated to prepare for the next injection cycle by one pulse of 10 mM glycine/HCl, pH 2.0, for 30 s at 30 μL/min.
Double-referenced sensorgrams from duplicate or triplicate repeat injections were analyzed using Biacore™ T200 Evaluation Software v3.0 and fit to the 1:1 Langmuir binding model.
As to B9, the “KD fold change (against WT:WT)” value was 1 fold.

Another test deals with T2, WT G-CSFR(Ig-CRH), purified, tag cleaved. Put plainly: SPR, WT G-CSFR(Ig-CRH) amine-coupled, G-CSFE injected, single-cycle kinetics. The procedure: as §1
To assess binding affinity of G-CSFE to G-CSFRWT, recombinant G-CSFRWT purified as described in Example 5 was captured as described above in this Example. Using single-cycle kinetics, six concentrations of a two-fold dilution series of each G-CSFE mutant starting at […] with a blank buffer control were sequentially injected as described above. The same sample titration was also performed on a reference cell with no variants captured. The G-CSFRWT surface was regenerated as described above.
B10: the “KD fold change (against WT:WT)” value is 79 fold. The same measure, in the same setting: to B9 belongs 465 fold; to B11, 3.4 fold.
